Measurements taken from patent US11015206B2, “Compositions and methods comprising sequences having hydroxyphenylpyruvate dioxygenase (HPPD) activity” (PIONEER HI-BRED INTERNATIONAL, INC., priority 2014, dated 2021).

Columns and labels:
Type in all cases: biochemical, Z. mays
[1] = system: 4-hydroxyphenylpyruvate dioxygenase (HPPD); assay: HPPD activity coupled assay with HGD; substrate saturation kinetic parameters (kcat, KM); settings: substrate saturation kinetic analysis
Outline: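 Coupled continuous assay: His-tagged HPPD (5 to 240 nM, E. coli-expressed, Ni-NTA-purified) with 50 nM P. aeruginosa HGD in 25 mM Hepes pH 7, 2 mM ascorbate, 10 μM FeSO4; maleylacetoacetate followed at 320 nm. KM and Vmax from Lineweaver-Burke fits over 3.33–100 μM HPP.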

[2] = system: 4-hydroxyphenylpyruvate dioxygenase (HPPD); assay: Estimate of kcat from initial rate at saturating hydroxyphenylpyruvate without inhibitor (ON rate ratio assay)
Outline: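 kcat was estimated from the initial reaction rate with known enzyme level (60 or 120 nM HPPD). Hydroxyphenylpyruvate was at a saturating 100 μM, with no inhibitor present.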

[3] = system: 4-hydroxyphenylpyruvate dioxygenase (HPPD); assay: Insensitivity parameter (ON × OFF) and trait fitness (ON × OFF × kcat/KM or × kcat); set-up: key to ON × OFF / Insensitivity, mesotrione, ON × OFF / Insensitivity, tembotrione, ON × OFF / Insensitivity, topramezone, ON × OFF / Insensitivity, sulcotrione, ON × OFF / Insensitivity, isoxaflutole (DKN), ON × OFF: insensitivity = ON rate ratio × OFF rate ratio (surrogate for KD); settings: for Insensitivity, isoxaflutole (DKN), ON × OFF / Insensitivity, isoxaflutole (DKN), Trait fitness: inhibitor diketonitrile form of isoxaflutole (DKN); for Insensitivity, mesotrione, ON × OFF / Insensitivity, mesotrione, Trait Fitness: inhibitor mesotrione; for Insensitivity, sulcotrione, ON × OFF / Insensitivity, sulcotrione, Trait fitness: inhibitor sulcotrione; for Insensitivity, tembotrione, ON × OFF / Insensitivity, tembotrione, Trait fitness: inhibitor tembotrione; for Insensitivity, topramezone, ON × OFF / Insensitivity, topramezone, Trait Fitness: inhibitor topramezone
Outline: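 Trait fitness combines catalysis and insensitivity as kcat/KM × ON rate ratio × OFF rate ratio. The insensitivity parameter is the product of ON and OFF rate ratios, used in place of KD because the ON rate ratio is inverse.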

[4] = Table 7, combinatorial variants
[5] = Table 7, tembotrione, combinatorial variants

Row | Molecule | Km [1] | kcat [1] | kcat ([2]; Megatable 3, shuffled variants) | kcat [2, 4] | ON × OFF ([3]; Megatable 3, shuffled variants) | ON × OFF × kcat ([3]; Megatable 3, shuffled variants) | ON × OFF [3, 5] | ON × OFF × kcat [3, 5] | Insensitivity, isoxaflutole (DKN), ON × OFF [3] | Insensitivity, isoxaflutole (DKN), Trait fitness [3] | Insensitivity, mesotrione, ON × OFF [3] | Insensitivity, mesotrione, Trait Fitness [3] | Insensitivity, sulcotrione, ON × OFF [3] | Insensitivity, sulcotrione, Trait fitness [3] | Insensitivity, tembotrione, ON × OFF [3] | Insensitivity, tembotrione, Trait fitness [3] | Insensitivity, topramezone, ON × OFF [3] | Insensitivity, topramezone, Trait Fitness [3]
1 | P056028-B-09 (protein, Zea mays variant form created by artificial means.) MGPTPTATAAGAAVAAASAAEQAAFRLVGHRNFVRFNPRSDRFQTLAFHHVELWCADAASAAGRFSFALGVPLAARSDLSTGNSAHASLLLRSGSLSLLFTAPYAHGADAATAALPSFSAAAARRFAADHGLAVRAVALRVADAEDAFRASVAAGARPAFGPVDLGRGFRLAEVELYGDVVLRYVSYPDGAAGEPFLPGFEGVASPGAADYGLSRFDHIVGNVPELAPAAAYMAGFTGFHEFAEFTTEDVGTTESGLNSMALANNSENVLLPLNEPVHGTKRRSQIQTFLDHHGGPGVQHIALASDDVLRTLREMRARSAMGGFEFLPPPLSDYYDDVRRCAGDVLTEAQINECQELGVMVDRDDEGVLLQIFTKPVGDRPTFFLEIIQRIGCVEKDEKGQEYQKGGCGGFGKGNFGQLFKSIEDYEKSLEAKRAAAAATAQGS | 3 µM | 1.55 s⁻¹ | 0.575 s⁻¹ | 0.575 s⁻¹ | 0.121 | 4.19 | 0.121 | 4.19 | 0.25 | 7.93 | 0.67 | 21.2 | 0.68 | 21.6 | 0.26 | 8.28 | 0.38 | 12.12
2 | 9070Q366E (protein, Zea mays variant form created by artificial means.) MGPTPTATAAGAAVAAASAAEQAAFRLVGHRNFVRFNPRSDRFQTLAFHHVELWCADAASAAGRFSFALGVPLAARSDLSTGNSAHASLLLRSGSLSLLFTAPYAHGADAATAALPSFSAAAARRFAADHGLAVRAVALRVADAEDAFRASVAAGARPAFGPVDLGRGFRLAEVELYGDVVLRYVSYPDGAAGEPFLPGFEGVASPGAADYGLSRFDHIVGNVPELAPAAAYMAGFTGFHEFAEFTTEDVGTTESGLNSMALANNSENVLLPLNEPVHGTKRRSQIQTFLDHHGGPGVQHIALASDDVLRTLREMRARSAMGGFEFLPPPLSDYYDGVRRCAGDVLTEAQINECQELGVMVDRDDEGVLLQIFTKPVGDRPTFFLEIIQRIGCMEKDEKGQEYQKGGCGGFGKGNFGQLFKSIEDYEKSLEAKQAAAAATAQGS | 1.57 µM | 0.513 s⁻¹ | 0.335 s⁻¹ | 0.335 s⁻¹ | 0.208 | 4.18 | 0.208 | 4.18 | 0.17 | 3.40 | 0.72 | 14.0 | 0.50 | 9.69 | 0.27 | 5.25 | 0.26 | 5.04
3 | P056028-A-01 (protein, Zea mays variant form created by artificial means.) MGPTPTATAAGAAVAAASAAEQAAFRLVGHRNFVRFNPRSDRFQTLAFHHVELWCADAASAAGRFSFALGVPLAARSDLSTGNSAHASLLLRSGSLSLLFTAPYAHGADAATAALPSFSAAAARRFAADHGLAVRAVALRVADAEDAFRASVAAGARPAFGPVDLGRGFRLAEVELYGDVVLRYVSYPDGAAGEPFLPGFEGVASPGAADYGLSRFDHIVGNVPELAPAAAYMAGFTGFHEFAEFTTEDVGTTESGLNSMALANNSENVLLPLNEPVHGTKRRSQIQTFLDHHGGPGVQHIALASDDVLRTLREMRARSAMGGFEFLPPPLSDYYDGVRRCAGDVLTEAQINECQELGVMVDRDDEGVLLQIFTKPVGDRPTFFLEIIQRIGCMEKDEKGQEYQKGGCGGFGKGNFGQLFKSIEDYEKSLEAKRAAAAATAQGS | 2.49 µM | 1.21 s⁻¹ | 0.652 s⁻¹ | 0.652 s⁻¹ | 0.173 | 6.78 | 0.173 | 6.78 | 0.36 | 10.45 | 0.67 | 19.6 | 0.97 | 28.4 | 0.36 | 10.43 | 0.51 | 14.86
